Assay results: article PMC11512059 (Nature Communications, 2024)

B1: human connexin 36 gap junction channel, wild type, in lipid nanodiscs containing brain lipids (Cx36_(Nano-BL)-WT) (natural protein, UniProt Q9UKL4 1-321, looked up)
chain: MGEWTILERLLEAAVQQHSTMIGRILLTVVVIFRILIVAIVGETVYDDEQTMFVCNTLQPGCNQACYDRAFPISHIRYWVFQIIMVCTPSLCFITYSVHQSAKQRERRYSTVFLALDRDPPESIGGPGGTGGGGSGGGKREDKKLQNAIVNGVLQNTENTSKETEPDCLEVKELTPHPSGLRTASKSKLRRQEGISRFYIIQVVFRNALEIGFLVGQYFLYGFSVPGLYECNRYPCIKEVECYVSRPTEKTVFLVFMFAVSGICVVLNLAELNHLGWRKIKLAVRGAQAKRKSIYEIRNKDLPRVSVPNFGRTQSSDSAYV
B2: human connexin 36 Ala14 deletion variant gap junction channel in lipid nanodiscs containing brain lipids (Cx36_(Nano-BL)-∆A14) (natural protein, UniProt Q9UKL4 1-321, looked up)
chain: MGEWTILERLLEAVQQHSTMIGRILLTVVVIFRILIVAIVGETVYDDEQTMFVCNTLQPGCNQACYDRAFPISHIRYWVFQIIMVCTPSLCFITYSVHQSAKQRERRYSTVFLALDRDPPESIGGPGGTGGGGSGGGKREDKKLQNAIVNGVLQNTENTSKETEPDCLEVKELTPHPSGLRTASKSKLRRQEGISRFYIIQVVFRNALEIGFLVGQYFLYGFSVPGLYECNRYPCIKEVECYVSRPTEKTVFLVFMFAVSGICVVLNLAELNHLGWRKIKLAVRGAQAKRKSIYEIRNKDLPRVSVPNFGRTQSSDSAYV

Biological target: the molecule itself
Experiment: cryo-EM structure

| Protein | binding result |
| --- | --- |
| B1 | binds |
| B2 | binds |
